The numbers were not newly measured in article PMC8174820, which cites them from elsewhere.

This data set has as its system Tyr134. In words: chemical modification.

With “Cellular retinoic acid binding protein 2 (CRABP2) (Homo sapiens (inferred; the review discusses the human proteome but does not name the species for CRABP2))”, the pKa entry is reported as “∼7.6”.
